For the test, the target named is T1, recombinant human EZH2 protein, biotinylated (human, UniProt Q15910 1-746, biotin (Biotinylation Kit, Thermo Scientific 21329)).
T1 construct: Enhancer of zeste homolog 2 (EZH2), human recombinant protein, Origene TP302054; check the vendor's sheet; also called rhEZH2; source: bought: Origene (TP302054), biotinylated and desalted
Put plainly: BLI; OctetRED; his-tagged rhRcn3 (5 µg/ml) immobilised on NTA biosensors; biotinylated rhEZH2 at 262.3, 131.1, 65.56 and 32.78 µg/ml in binding buffer; association and dissociation for 10 min at 25 °C. To be noted: both partners purified.

T1 sequence (Q15910 whole entry): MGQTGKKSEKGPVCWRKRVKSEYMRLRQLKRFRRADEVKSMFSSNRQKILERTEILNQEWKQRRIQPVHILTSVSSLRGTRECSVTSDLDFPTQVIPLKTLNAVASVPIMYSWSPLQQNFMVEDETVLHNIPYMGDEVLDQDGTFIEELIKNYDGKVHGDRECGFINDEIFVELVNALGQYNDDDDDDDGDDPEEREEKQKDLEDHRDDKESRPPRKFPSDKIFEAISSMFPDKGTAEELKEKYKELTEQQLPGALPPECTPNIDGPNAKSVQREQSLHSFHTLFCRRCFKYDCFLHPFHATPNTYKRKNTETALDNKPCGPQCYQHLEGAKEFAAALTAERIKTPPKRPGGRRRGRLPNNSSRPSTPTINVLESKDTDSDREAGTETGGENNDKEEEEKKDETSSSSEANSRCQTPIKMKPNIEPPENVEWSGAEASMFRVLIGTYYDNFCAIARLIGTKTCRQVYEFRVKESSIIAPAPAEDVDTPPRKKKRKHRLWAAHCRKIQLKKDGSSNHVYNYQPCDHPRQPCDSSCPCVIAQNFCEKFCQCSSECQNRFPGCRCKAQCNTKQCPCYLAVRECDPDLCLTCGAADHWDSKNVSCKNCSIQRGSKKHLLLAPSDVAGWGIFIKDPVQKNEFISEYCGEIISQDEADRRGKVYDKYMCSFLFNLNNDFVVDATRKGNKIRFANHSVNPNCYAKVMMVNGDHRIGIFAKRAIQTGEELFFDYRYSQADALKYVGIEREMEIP

B1: recombinant human Rcn3 with his-tag (natural protein, UniProt Q96D15 21-328, looked up)
chain: KPSPDAGPHGQGRVHQAAPLSDAPHDDAHGNFQYDHEAFLGREVAKEFDQLTPEESQARLGRIVDRMDRAGDGDGWVSLAELRAWIAHTQQRHIRDSVSAAWDTYDTDRDGRVGWEELRNATYGHYAPGEEFHDVEDAETYKKMLARDERRFRVADQDGDSMATREELTAFLHPEEFPHMRDIVIAETLEDLDRNKDGYVQVEEYIADLYSAEPGEEEPAWVQTERQQFRDFRDLNKDGHLDGSEVGHWVLPPAQDQPLVEANHLLHESDTDKDGRLSKAEILGNWNMFVGSQATNYGEDLTRHHDEL
notes: Reticulocalbin 3 (RCN3), human recombinant protein, Abcam ab276552; Construct limits are those of the vendor's product; also called rhRcn3; hrRcn3; source: bought: Abcam (ab276552)
With B1, the Kd turned out to be 1540 nM.

As usually defined, the Kd is a measure of binding affinity in units of concentration.

Source of the values: article PMC10500825, “TGFβ1-RCN3-TGFBR1 loop facilitates pulmonary fibrosis by orchestrating fibroblast activation” (Respiratory Research, 2023).
